The values that follow come from PMC11077057, “Identifying human pre-mRNA cleavage and polyadenylation factors by genome-wide CRISPR screens using a dual fluorescence readthrough reporter”.

What all share (assay): EMSA; 0-1 ug protein; heparin 200 ug/ml added after binding; EMSA: 40 mM Tris pH 8.0, 30 mM KCl, 1 mM MgCl2, 0.01% NP-40, 1 mM DTT, 100 ng/ml yeast tRNA, 20 ul, 30 C 30-60 min, then on ice with heparin 200 ug/ml; 4-6% native PAGE 0.5x TBE, cold room
For orientation: Mobility shift assays separate free from complexed probe on a gel.

One data set addresses T1, RPRD1B CID (human, UniProt Q9NQG5 2-135).
T1 sequence: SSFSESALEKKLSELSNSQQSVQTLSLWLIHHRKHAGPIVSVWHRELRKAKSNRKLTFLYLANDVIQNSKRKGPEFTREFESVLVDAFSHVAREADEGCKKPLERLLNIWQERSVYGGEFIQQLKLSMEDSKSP
As to conditions: protein: recombinant; (pET28GST-LIC; 6xHis stated).

The target in the next data set is T2, RPRD1B full length (human, UniProt Q9NQG5 2-326).
T2 sequence: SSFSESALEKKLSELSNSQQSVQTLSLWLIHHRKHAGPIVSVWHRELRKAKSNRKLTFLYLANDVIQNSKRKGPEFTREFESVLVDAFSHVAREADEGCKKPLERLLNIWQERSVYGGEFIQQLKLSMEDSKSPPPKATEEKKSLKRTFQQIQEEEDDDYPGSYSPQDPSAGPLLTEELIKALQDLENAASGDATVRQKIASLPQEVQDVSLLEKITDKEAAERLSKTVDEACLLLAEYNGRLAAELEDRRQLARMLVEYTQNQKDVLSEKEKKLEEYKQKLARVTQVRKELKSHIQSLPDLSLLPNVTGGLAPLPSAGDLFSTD
As to conditions: protein: recombinant; (pET28GST-LIC; 6xHis stated); chain copies: 2.

Data set [1] has as its target T3, RPRD1B coiled-coil domain (human, UniProt Q9NQG5 171-304).
T3 sequence: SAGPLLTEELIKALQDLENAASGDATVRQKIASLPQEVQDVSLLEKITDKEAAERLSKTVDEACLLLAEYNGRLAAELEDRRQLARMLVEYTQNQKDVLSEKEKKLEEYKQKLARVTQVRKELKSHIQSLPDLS
Conditions: protein: recombinant; (pET28GST-LIC; 6xHis stated); chain copies: 2.

B1: GEMIN7 3' UTR probe (ssRNA)
RNA: AUUUGAUUUCAUUUUGGGGCGGGCGGUGGCUCGUGCUGGGUCACGUGGUCGUGCCAAGCGCUCCUCCUGUUGCCCCACCUGUGGUUGCUGUGGACUGCAC
On to B1, for which the binding result with RPRD1B CID was “binds”; with RPRD1B full length, “binds”; in data set [1], “no binding”.

B2: GEMIN7 exon 2 probe (ssRNA)
RNA: GCGGCUUCUCUGUUGACAACUCAGCUGGUUCCACACCCUGGCAAUUGUGAAGAGUUGGCCAAAUGUUUGUCCACUGAGCUGAUCUCCUCUCUGGAGCACC
On to B2, for which the binding result with RPRD1B full length is given as “no binding”.
